Results reported in publication PMC9000616 (Molecules, 2022).

Biological target: the molecule itself
Assay: AUC; sedimentation velocity, 20 °C, Rayleigh interference optics, c(s) analysis converted into c(M); AtDSEL at 3.0, 1.5 and 0.8 mg/mL; CaPLA1 at 1.1, 0.5 and 0.3 mg/mL

B1: Arabidopsis thaliana DAD1-like seedling establishment-related lipase (enzyme, UniProt O49523 1-419, looked up)
chain: MKRKKKEEEEEKLIVTREFAKRWRDLSGQNHWKGMLQPLDQDLREYIIHYGEMAQAGYDTFNINTESQFAGASIYSRKDFFAKVGLEIAHPYTKYKVTKFIYATSDIHVPESFLLFPISREGWSKESNWMGYVAVTDDQGTALLGRRDIVVSWRGSVQPLEWVEDFEFGLVNAIKIFGERNDQVQIHQGWYSIYMSQDERSPFTKTNARDQVLREVGRLLEKYKDEEVSITICGHSLGAALATLSATDIVANGYNRPKSRPDKSCPVTAFVFASPRVGDSDFRKLFSGLEDIRVLRTRNLPDVIPIYPPIGYSEVGDEFPIDTRKSPYMKSPGNLATFHCLEGYLHGVAGTQGTNKADLFRLDVERAIGLVNKSVDGLKDECMVPGKWRVLKNKGMAQQDDGSWELVDHEIDDNEDLDF
notes: AtDSEL, phospholipase A1 of Arabidopsis thaliana, full length, UniProt O49523; A non-native Gly from the TEV site (ENLYFQG) is left at the N-terminus after cleavage; Homodimer by crystal structure and AUC; also called AtDSEL; source: E. coli BL21 (DE3), purified (Ni-NTA, TEV cleavage, Ni-NTA, SEC); not shown: His6, N-terminal, cleaved
In the case of B1, the “stoichiometry N” value is reported as 2.

B2: Capsicum annuum phospholipase A1 homolog (enzyme, UniProt A5YW95 1-397, looked up)
chain: MGSMAEKWEELSGKNNWEGLLNPLDLDLRKYIIQYGELAQATYDTFISERASKYAGASRYSMENFFTKVGLDPSKYHVTKFFYGTSSIPLPDAFMTRSLSREAWSKESNFMGYIAVATDEGKVALGRRDIVINWRGTLQVLEWVNDLQFLLVPAPKVFGDGGLLPLFHPLVHHGFHNIYTTENPRSQFNKTCVRDQVMEEVKRLVEEYKNEEVSITVTGHSLGASLATLNAVDIAFNGINKSSNGKEFPVTAFVFASPKVGDLNFHKAFSKLKHLHILRIHNLLDIVPKYPPVGYFDVGQELMIDTTKSPYVKPPGEVVSWHLLEPYLHGIAGTQGIGMTAGFKLEVNRDISLVNKQWMILKDEYCIPPLWWSEKHKGMVQQQDGSWLLQDRDDYEF
notes: CaPLA1, phospholipase A1 of hot pepper (Capsicum annuum), full length, UniProt A5YW95; A non-native Gly from the TEV site (ENLYFQG) is left at the N-terminus after cleavage; Homodimer by crystal structure and AUC; also called CaPLA1; source: E. coli BL21 (DE3), purified (Ni-NTA, TEV cleavage, Ni-NTA, SEC); not shown: His6, N-terminal, cleaved
With B2 the “stoichiometry N” value was 2.
